Key:
[1] = system: IL-2 dependant BT-2 T cell line; test: Residual r-BoIL-2 bioactivity in dry cow gland secretions (BT-2 bioassay); type: in vivo, bovine
Protocol: FIGS. 4(A-B): Measurement of Residual r-BoIL-2 Bioactivity in Secretions from Dry Cow Glands Infused with r-BolL-2
Secretions from 4 quarters (4 different cows) are infused with 1 mg of r-BoIL-2 at drying-off (2 quarters) or not treated with r-BoIL-2 (2 quarters). Dry gland secretions are collected at time 0,72,144 and 240 hours after infusion. All samples shown are from the 72 hour time point and are diluted 1:50 and 1:200, and assayed for amount of biologically active r-BoIL-2 using the IL-2 dependant BT-2 T cell line, panel B. The BT-2 cell line is a bovine T cell line which requires IL-2 for growth. By measuring the degree of proliferation of this cell line, one directly measures the amount of biologically active IL-2 in a test media. Data is expressed as a mean ^3 H-thymidine incorporation +/- S.D. of triplicate samples of BT-2 cells for each of the individual numbered animals. […] A standard assay of various concentrations of r-BoIL-2 in 2% dry secretions is also shown in panel A as a positive control.
To specifically study the presence of cytokines after a single intramammary infusion into dry cows, […] from four different cows, are infused with 1 mg r-BoIL-2 at dry-off. […] Secretions from dry cow quarters treated with 1 mg of r-BoIL-2 are collected at 72, 144 and 240 hours after dry cow treatment. As with the milk, a 1:50 dilution of dry secretion samples is made and these solutions assayed by the bioassay using BT-2 and compared to r-BoIL-2 diluted in media.

[2] = Milk production in lactating glands after intramammary infusion or intramuscular injection; type: in vivo, bovine (lactating dairy cows); details: for decrease of milk production: FIG. 3A
Protocol: FIGS. 3(A-I): Milk Production After Intramammary Infusion or Intramuscular Injection of r-BoIL-2 into Lactating Dairy Cows
Mean milk production in kilograms +/- Standard Error is recorded for 8 lactating dairy cows after intramammary infusion of r-BoIL-2 or no treatment. Data is shown as a percentage of the average milk production (Standard Deviation) compared to the first five days prior to Treatment (mean for 100% production level ). Production after r-BoIL-2 intramammary infusion with total dosing amounting to 4.5 mg or 13.5 mg in quarters infected with S. aureaus is compared to infected, untreated cows for a 6 day time period, panel A. Similarly, production is also followed in 7 lactating injections of r-BoIL-2 at 2.5 μg/kg/day for 5 days and compared to 3 normal PBS injected controls, panel B. All cows are in mid to late stages of their second or third lactation at the time of r-BoIL-2 therapy. All effects on milk production are transient, returning to pre-treatment levels within 96 hours after cessation of treatment.
In vivo measurement of daily milk production is also monitored for both intramammary infusions and intramuscular injection. Cows are milked morning and evening and the milk weighed and recorded in total kilograms per day. The total dose of IL-2 administered per cow ranges from 2 to 96 mg. Single or multiple intramammary infusions of IL-2 have variable effects on individual animal's milk production based upon the total dose of r-BoIL-2 administered per day, FIG. 3 A (INTRAMAMMARY). Production decreases as much as 30-40% by the third infusion in the high dose animals (13.5 mg), whereas only a 12% decrease is observed at the 4.5 mg dose (not statistically different from time 0 production or control animals). […] This induction would be of great significance to assist in the morphological changes required during early lactation and serves to accelerate the protective mechanisms.

B1: recombinant bovine interleukin-2 (protein, UniProt P05016 21-155, looked up)
Interleukin-2: APTSSSTGNTMKEVKSLLLDLQLLLEKVKNPENLKLSRMHTFDFYVPKVNATELKHLKCLLEELKLLEEVLNLAPSKNLNPREIKDSMDNIKRIVLELQGSETRFTCEYDDATVNAVEFLNKWITFCQSIYSTMT
notes: recombinant bovine interleukin-2, obtained from IMMUNEX Corp. Seattle, WA
detectable r-BoIL-2 bioactivity in dry gland secretions ([1]; 1 mg intramammary at dry-off, 72 hours after infusion, 1:50 dilution): less than 0.024 .eta.g/ml
residual r-BoIL-2 bioactivity in secretions ([1]; 1 mg intramammary at drying-off, 72, 144, 240 hours): No r-BoIL-2 activity could be detected at any time point
biologically active IL-2 in dry cow secretions ([1]; after 3 days, FIG. 4): no biologically active IL-2 is detected after 3 days
time to return of milk production to pre-treatment levels after cessation of treatment ([2]; intramammary or intramuscular r-BoIL-2): ≤ 96 h
decrease of milk production ([2]; intramammary, 4.5 mg, not statistically different from time 0 or control): 12%
decrease of milk production ([2]; intramammary, 13.5 mg, by the third infusion): 30-40%
effect on milk production ([2]; intramammary, total dose less than 4.5 mg): No statistically significant effect on milk production
